Measured values from patent US20210230272A1.
Where two headings read alike, the source gives them in different places. Values belong to the binder of their own block, whether it stands above or below them.

Key:
[1] = biological target: human CLDN18.2 (human), P56856; assay: cell-based or functional assay
[2] = biological target: human CLDN18.2 (human) (UniProt P56856); assay: cell ELISA, hCLDN18.2+ cells
[3] = biological target: mice CLDN18.2 (mice) (UniProt P56857); assay: cell ELISA, mCLDN18.2+ cells
[4] = biological target: human CLDN18.2 (human) (UniProt P56856); assay: cell-based or functional assay
[5] = biological target: human CLDN18.2 (human) (UniProt P56856); assay: cell ELISA, hCLDN18.2+ cells; remark: listed apart in the source
[6] = biological target: human CLDN18.2 (human) (UniProt P56856); assay: flow cytometry, CF633, 1 µg/ml
[7] = biological target: human CLDN18.2 (human) (UniProt P56856); assay: flow cytometry, CF488, 10 µg/ml
[8] = biological target: human CLDN18.2 (human) (UniProt P56856); assay: flow cytometry, CF633, 10 µg/ml
[9] = biological target: human CLDN18.2 (human) (UniProt P56856); assay: KinExA, antibody titrated with hCLDN18.2+ cells
[10] = biological target: human CLDN18.2 (human) (UniProt P56856); assay: flow cytometry, CF488 labeled antibody 1 µg/ml, hCLDN18.2+ cells
[11] = biological target: human CLDN18.2 (human) (UniProt P56856); assay: flow cytometry, CF633 labeled antibody 1 µg/ml, hCLDN18.2+ cells
[12] = biological target: human CLDN18.2 (human) (UniProt P56856); assay: flow cytometry, CF488 labeled antibody 10 µg/ml, hCLDN18.2+ cells
[13] = biological target: human CLDN18.2 (human) (UniProt P56856); assay: flow cytometry, CF633 labeled antibody 10 µg/ml, hCLDN18.2+ cells

B2: Ab23 (antibody, V domains shown)
VH: QVQLVQSGAEVKKPGSSVKVSCKASGYAFSNYLIEWVRQAPGQGLEWMGLINPGSGGTNYNEKFKGKVTITADKSTSTAYMELSSLRSEDTAVYYCARVYYGTSFAYWGQGTLVTVSS
VL: DIVMTQSPDSLAVSLGERATINCKSSQSLLNTGNNKNYLAWYQQKPGQPPKLLIYWASTRESGVPDRFSGSGSGTDFTLTISSLQAEDVAVYYCQNDYFYPFTFGQGTKLEIK
EC50 [2]: > 40 nM
Emax [2]: 0.147

B3: Ab28 (antibody, V domains shown)
VH: QVQLVQSGAEVKKPGSSVKVSCKASGYAFSNYLIEWVRQAPGQGLEWMGLINPGSGGTNYNEKFKGKVTITADKSTSTAYMELSSLRSEDTAVYYCARVYYGNSFAYWGQGTLVTVSS
VL: DIVMTQSPDSLAVSLGERATINCKSSQSLLNTGNNKNYLAWYQQKPGQPPKLLIYWASTRESGVPDRFSGSGSGTDFTLTISSLQAEDVAVYYCQNDYFYPFTFGQGTKLEIK
EC50 [2]: 0.154 nM
Emax [2]: 1.56

B4: Ab22 (antibody, V domains shown)
VH: QVQLVQSGAEVKKPGSSVKVSCKASGYAFSNYLIEWVRQAPGQGLEWMGLINPGSGGTNYNEKFKGKVTITADKSTSTAYMELSSLRSEDTAVYYCARVYYGNTFAYWGQGTLVTVSS
VL: DIVMTQSPDSLAVSLGERATINCKSSQSLLTSGNNKNYLAWYQQKPGQPPKLLIYWASTRESGVPDRFSGSGSGTDFTLTISSLQAEDVAVYYCQNDYFYPFTFGQGTKLEIK
EC50 [2]: 1.37 nM
Emax [2]: 0.827

B6: Ab21 (antibody, V domains shown)
VH: QVQLVQSGAEVKKPGSSVKVSCKASGYAFSNYLIEWVRQAPGQGLEWMGLINPGSGGTNYNEKFKGKVTITADKSTSTAYMELSSLRSEDTAVYYCARVYYGTSFAYWGQGTLVTVSS
VL: DIVMTQSPDSLAVSLGERATINCKSSQSLLTSGNNKNYLAWYQQKPGQPPKLLIYWASTRESGVPDRFSGSGSGTDFTLTISSLQAEDVAVYYCQNDYFYPFTFGQGTKLEIK
EC50 [2]: > 16 nM
Emax [2]: 0.145

B7: Ab30 (antibody, V domains shown)
VH: QVQLVQSGAEVKKPGSSVKVSCKASGYAFSNYLIEWVRQAPGQGLEWMGLINPGSGGTNYNEKFKGKVTITADKSTSTAYMELSSLRSEDTAVYYCARVYYGNTFAYWGQGTLVTVSS
VL: DIVMTQSPDSLAVSLGERATISCKSSQSLLNSGNQKNYLTWYQQKPGQPPKLLIYWASTRESGVPDRFSGSGSGTDFTLTISSLQAEDVAVYYCQNDYFYPFTFGQGTKLEIK
EC50 [2]: 11.4 nM
Emax [2]: 0.67

B10: CAR1a (CAR with Ab10 scFv) (protein)
chain: DIVMTQSPDSLAVSLGERATISCKSSQSLLNSGNQKNYLTWYQQKPGQPPKLLIYWASTRESGVPDRFSGSGSGTDFTLTISSLQAEDVAVYYCQNDYFYPFTFGQGTKLEIKGGGGSGGGGSGGGGSQVQLVQSGAEVKKPGSSVKVSCKASGYAFSNYLIEWVKQAPGQGLEWIGLINPGSGGTNYNEKFKGKATITADKSTSTAYMELSSLRSEDTAVYYCARVYYGNSFAYWGQGTLVTVSSTTTPAPRPPTPAPTIASQPLSLRPEACRPAAGGAVHTRGLDFACDIYIWAPLAGTCGVLLLSLVITLYCKRGRKKLLYIFKQPFMRPVQTTQEEDGCSCRFPEEEEGGCELRVKFSRSADAPAYKQGQNQLYNELNLGRREEYDVLDKRRGRDPEMGGKPRRKNPQEGLYNELQKDKMAEAYSEIGMKGERRRGKGHDGLYQGLSTATKDTYDALHMQALPPR
specific killing rate of target cells, %, CART1a, 1:1 [1]: 19.1%
specific killing rate of target cells, %, CART1a, 3:1 [1]: 18.3%
specific killing rate of target cells, %, CART1a, 10:1 [1]: 32.2%
specific killing rate of target cells, %, CART1a, 20:1 [1]: 34.8%
specific killing rate of target cells, %, CART3a, 1:1 [1]: 3.9%
specific killing rate of target cells, %, CART3a, 3:1 [1]: 3.1%
specific killing rate of target cells, %, CART3a, 10:1 [1]: 21.8%
specific killing rate of target cells, %, CART3a, 20:1 [1]: 24.3%
specific killing rate of target cells, %, CART3ab10, 1:1 [1]: 0%
specific killing rate of target cells, %, CART3ab10, 3:1 [1]: 0%
specific killing rate of target cells, %, CART3ab10, 10:1 [1]: 12.2%
specific killing rate of target cells, %, CART3ab10, 20:1 [1]: 21.2%
specific killing rate of target cells, %, CART4a, 1:1 [1]: 0%
specific killing rate of target cells, %, CART4a, 3:1 [1]: 1.2%
specific killing rate of target cells, %, CART4a, 10:1 [1]: 8.8%
specific killing rate of target cells, %, CART4a, 20:1 [1]: 19.8%

Other lines, results leading:

CDC activity, EC50 [1]: 2.12 µg/mL
B1: Ab51 (antibody, IgG1, V domains shown)
VL: DIVMTQSPDSLAVSLGERATINCKSSQSLLNTGNNKNYLAWYQQKPGQPPKLLIYWASTRESGVPDRFSGSGSGTDFTLTISSLQAEDVAVYYCQNDYFYPFTFGQGTKLEIK
VH: QVQLVQSGAEVKKPGSSVKVSCKASGYAFSNYLIEWVRQAPGQGLEWMGLINPGSGGTNYNEKFKGRVTITADESTSTAYMELSSLRSEDTAVYYCARVYYGNTFAYWGQGTLVTVSS

EC50 [2]: 0.151 nM
Emax [2]: 1.42
B5: Ab34 (antibody, V domains shown)
VH: QVQLVQSGAEVKKPGSSVKVSCKASGYAFSNYLIEWVRQAPGQGLEWMGLINPGSGGTNYNEKFKGKVTITADKSTSTAYMELSSLRSEDTAVYYCARVYYGNTFAYWGQGTLVTVSS
VL: DIVMTQSPDSLAVSLGERATISCKSSQSLLNSGNNKNYLAWYQQKPGQPPKLLIYWASTRESGVPDRFSGSGSGTDFTLTISSLQAEDVAVYYCQNDYFYPFTFGQGTKLEIK

EC50 [3]: 0.474 nM
Emax [3]: 1.91
B8: Ab51 (antibody, IgG1, V domains shown)
VH: QVQLVQSGAEVKKPGSSVKVSCKASGYAFSNYLIEWVRQAPGQGLEWMGLINPGSGGTNYNEKFKGRVTITADESTSTAYMELSSLRSEDTAVYYCARVYYGNTFAYWGQGTLVTVSS
VL: DIVMTQSPDSLAVSLGERATINCKSSQSLLNTGNNKNYLAWYQQKPGQPPKLLIYWASTRESGVPDRFSGSGSGTDFTLTISSLQAEDVAVYYCQNDYFYPFTFGQGTKLEIK

EC50 [2]: 0.197 nM
Emax [2]: 1.41
B9: Ab32 (antibody, V domains shown)
VH: QVQLVQSGAEVKKPGSSVKVSCKASGYAFSNYLIEWVRQAPGQGLEWMGLINPGSGGTNYNEKFKGKVTITADKSTSTAYMELSSLRSEDTAVYYCARVYYGNTFAYWGQGTLVTVSS
VL: DIVMTQSPDSLAVSLGERATINCKSSQSLLNSGNNKNYLAWYQQKPGQPPKLLIYWASTRESGVPDRFSGSGSGTDFTLTISSLQAEDVAVYYCQNDYFYPFTFGQGTKLEIK

ADCC activity, EC50 [4]: 1.39 µg/mL
CDC activity, EC50 [4]: 2.31 µg/mL
inducing the apoptosis of tumor cells at 10 µg/ml (LDH release) [4]: 15.3%
inducing the apoptosis of tumor cells at 30 µg/ml (LDH release) [4]: 19.6%
inhibition rate % of proliferation, 1 µg/ml (CCK-8) [4]: 2.34%
inhibition rate % of proliferation, 10 µg/ml (CCK-8) [4]: 2.94%
inhibition rate % of proliferation, 30 µg/ml (CCK-8) [4]: 3.9%
EC50 [5]: 0.345 nM
Emax [5]: 0.98
EC50 [2]: 0.249 nM
Emax [2]: 1.41
EC50 [3]: 1.04 nM
Emax [3]: 1
binding value, ratio to the background [6]: 2.7
binding value, times higher than the background [7]: 4 times
binding value, times of the background [8]: 8.5 times
Kd [9]: 0.144 nM
Binding value (FACS fluorescence intensity) [10]: 1940
Binding value (FACS fluorescence intensity) [11]: 62.5
Binding value (FACS fluorescence intensity) [12]: 17900
Binding value (FACS fluorescence intensity) [13]: 198
B11: Ref (control anti-human CLDN18.2 antibody) (antibody, INN chains, looked up, V domains shown)
VH: QVQLQQPGAELVRPGASVKLSCKASGYTFTSYWINWVKQRPGQGLEWIGNIYPSDSYTNYNQKFKDKATLTVDKSSSTAYMQLSSPTSEDSAVYYCTRSWRGNSFDYWGQGTTLTVSS
VL: DIVMTQSPSSLTVTAGEKVTMSCKSSQSLLNSGNQKNYLTWYQQKPGQPPKLLIYWASTRESGVPDRFTGSGSGTDFTLTISSVQAEDLAVYYCQNDYSYPFTFGSGTKLEIKR
